The test system of the data set is Escherichia coli TOP10. In words: shrunken log2 fold change of peptide-encoding DNA abundance (4.5 h post-induction vs induction); higher = less antimicrobial activity (less host growth inhibition). To be noted: time post-induction: 4.5 h; library: site-saturation at positions 5, 18, 19, 20.
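Also: peptides expressed intracellularly from a pBAD plasmid library in pooled LB shake-flask culture, induced with 0.3% L-arabinose, DNA abundance read by NGS, three biological replicates, DESeq2 with apeglm shrinkage.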

Regarding RRIRMRPPRLPRPRPRPHMTPRP, the “shrunken log2 fold change” value stood at 0.342. To RRIRWRPPRLPRPRPRPGARPRP belongs 0.659. Regarding RRIRARPPRLPRPRPRPKTRPRP, the “shrunken log2 fold change” value is 0.689. To RRIRLRPPRLPRPRPRPVCQPRP belongs 0.155; to RRIRHRPPRLPRPRPRPQSCPRP, -0.0062; to RRIRTRPPRLPRPRPRPADTPRP, -0.215.

Regarding RRIRQRPPRLPRPRPRPSLTPRP, the “shrunken log2 fold change” value was determined as 0.133. Turning to RRIRDRPPRLPRPRPRPSDGPRP, the “shrunken log2 fold change” value stood at 0.166. In the case of RRIRWRPPRLPRPRPRPQFRPRP, the “shrunken log2 fold change” value was -0.0234. RRIRKRPPRLPRPRPRPFYPPRP: the “shrunken log2 fold change” value is -0.0703. To RRIRCRPPRLPRPRPRPSCAPRP belongs -0.0944. In the case of RRIRFRPPRLPRPRPRPLLRPRP, the “shrunken log2 fold change” value came out at 0.0227. On to RRIRGRPPRLPRPRPRPGQLPRP, for which the “shrunken log2 fold change” value was determined as 0.178. The same measure for RRIRRRPPRLPRPRPRPEVCPRP: 0.793. RRIRGRPPRLPRPRPRPESEPRP: the “shrunken log2 fold change” value was determined as 2. As for RRIRHRPPRLPRPRPRPEVIPRP, the “shrunken log2 fold change” value amounted to 0.0357. To RRIRPRPPRLPRPRPRPWIGPRP belongs -0.0305. To RRIRGRPPRLPRPRPRPYEFPRP belongs -0.0878; to RRIRSRPPRLPRPRPRPHSIPRP, -0.248.

On to RRIRPRPPRLPRPRPRPCKTPRP, for which the “shrunken log2 fold change” value came to 0.106. On to RRIRFRPPRLPRPRPRPINPPRP, for which the “shrunken log2 fold change” value was -1.08. As for RRIRERPPRLPRPRPRPIVWPRP, the “shrunken log2 fold change” value stood at 0.0693. To RRIRCRPPRLPRPRPRPEPIPRP belongs -0.0787.

Regarding RRIRQRPPRLPRPRPRPATSPRP, the “shrunken log2 fold change” value stood at 0.0218. To RRIRDRPPRLPRPRPRPSTSPRP belongs -0.115; to RRIRHRPPRLPRPRPRPYTSPRP, -0.00159; to RRIRTRPPRLPRPRPRPYPPPRP, -0.203.

As for RRIRQRPPRLPRPRPRPSRAPRP, the “shrunken log2 fold change” value was 0.19. To RRIRCRPPRLPRPRPRPPIAPRP belongs 1.41.

As for RRIRERPPRLPRPRPRPVKRPRP, the “shrunken log2 fold change” value was found to be 0.025.

For the sequence RRIRGRPPRLPRPRPRPLCQPRP, the “shrunken log2 fold change” value was determined as 0.712. To RRIRPRPPRLPRPRPRPSCWPRP belongs 0.36; to RRIRERPPRLPRPRPRPSRNPRP, -0.207; to RRIRDRPPRLPRPRPRPPKQPRP, -0.0537. The same measure for RRIRRRPPRLPRPRPRPKANPRP: 0.264; for RRIRNRPPRLPRPRPRPYNTPRP: -1.49. As to RRIRMRPPRLPRPRPRPQLCPRP, the “shrunken log2 fold change” value is 0.237. The same measure for RRIRLRPPRLPRPRPRPPDYPRP: -0.199. To RRIRGRPPRLPRPRPRPGYIPRP belongs -0.0887. To RRIRTRPPRLPRPRPRPGDGPRP belongs 0.393; to RRIRNRPPRLPRPRPRPKEYPRP, 0.199. RRIRPRPPRLPRPRPRPMQEPRP: the “shrunken log2 fold change” value was -0.0107. To RRIRWRPPRLPRPRPRPENTPRP belongs 0.167; to RRIRMRPPRLPRPRPRPDMTPRP, -0.05; to RRIRCRPPRLPRPRPRPEDFPRP, -0.198. As for RRIRTRPPRLPRPRPRPLKHPRP, the “shrunken log2 fold change” value is -0.315. On to RRIRSRPPRLPRPRPRPQHAPRP, for which the “shrunken log2 fold change” value was -0.153. To RRIRCRPPRLPRPRPRPWDWPRP belongs 0.313.

On to RRIRLRPPRLPRPRPRPSESPRP, for which the “shrunken log2 fold change” value was -0.244. To RRIRRRPPRLPRPRPRPRAFPRP belongs 0.605. On to RRIRWRPPRLPRPRPRPVMHPRP, for which the “shrunken log2 fold change” value is -0.119. To RRIRVRPPRLPRPRPRPNMVPRP belongs -0.201.

For the sequence RRIRNRPPRLPRPRPRPFVTPRP, the “shrunken log2 fold change” value was -0.274.

As for RRIRCRPPRLPRPRPRPTPRPRP, the “shrunken log2 fold change” value was 0.987. The same measure for RRIRCRPPRLPRPRPRPPYFPRP: -0.07; for RRIRHRPPRLPRPRPRPASDPRP: -0.0278; for RRIRIRPPRLPRPRPRPQNMPRP: -0.235.

RRIRKRPPRLPRPRPRPQLMPRP: the “shrunken log2 fold change” value came to 1.59. To RRIRCRPPRLPRPRPRPFNLPRP belongs -0.335. Turning to RRIRARPPRLPRPRPRPKQGPRP, the “shrunken log2 fold change” value is 0.373. RRIRMRPPRLPRPRPRPVAPPRP: the “shrunken log2 fold change” value worked out at 0.945. To RRIRGRPPRLPRPRPRPPWLPRP belongs 0.849. The same measure for RRIRWRPPRLPRPRPRPVGHPRP: 0.243; for RRIRFRPPRLPRPRPRPKKSPRP: 0.158.

In the case of RRIRPRPPRLPRPRPRPLEQPRP, the “shrunken log2 fold change” value was found to be 0.169. To RRIRQRPPRLPRPRPRPTGGPRP belongs 0.0146; to RRIRIRPPRLPRPRPRPWVSPRP, -0.119. To RRIRGRPPRLPRPRPRPDGKPRP belongs 0.0293. To RRIRLRPPRLPRPRPRPHPHPRP belongs -0.0325; to RRIRSRPPRLPRPRPRPSIAPRP, -0.167; to RRIRRRPPRLPRPRPRPSIWPRP, 0.032.

In the case of RRIRGRPPRLPRPRPRPEGAPRP, the “shrunken log2 fold change” value worked out at 1.49.

Regarding RRIRERPPRLPRPRPRPTSLPRP, the “shrunken log2 fold change” value was -0.647. To RRIRGRPPRLPRPRPRPDTFPRP belongs 0.43; to RRIRSRPPRLPRPRPRPMSQPRP, -0.0303; to RRIRPRPPRLPRPRPRPKWYPRP, -0.161.

With RRIRVRPPRLPRPRPRPAAGPRP, the “shrunken log2 fold change” value came to 0.154. To RRIRMRPPRLPRPRPRPQWRPRP belongs 1.5; to RRIRKRPPRLPRPRPRPDMQPRP, -0.0618; to RRIRRRPPRLPRPRPRPPHMPRP, 1.11. The same measure for RRIRWRPPRLPRPRPRPIRKPRP: 0.636; for RRIRQRPPRLPRPRPRPAFIPRP: -0.239; for RRIRYRPPRLPRPRPRPGFHPRP: -0.564.

For the sequence RRIRMRPPRLPRPRPRPRIEPRP, the “shrunken log2 fold change” value is -0.0903. The same measure for RRIRTRPPRLPRPRPRPSIEPRP: -0.155; for RRIRIRPPRLPRPRPRPRAVPRP: 0.314. To RRIRNRPPRLPRPRPRPHAVPRP belongs 0.00516; to RRIRCRPPRLPRPRPRPIFAPRP, 0.373. For the sequence RRIRSRPPRLPRPRPRPWQAPRP, the “shrunken log2 fold change” value stood at 0.214. The same measure for RRIRERPPRLPRPRPRPNNRPRP: -0.315.

As to RRIRKRPPRLPRPRPRPMQVPRP, the “shrunken log2 fold change” value was determined as 0.175. As to RRIRIRPPRLPRPRPRPRWIPRP, the “shrunken log2 fold change” value was -0.0611. To RRIRCRPPRLPRPRPRPFWMPRP belongs -0.176; to RRIRWRPPRLPRPRPRPRFNPRP, 0.0235. To RRIRQRPPRLPRPRPRPKPSPRP belongs 0.159; to RRIRSRPPRLPRPRPRPMCSPRP, -0.0814; to RRIRPRPPRLPRPRPRPGTNPRP, 1.46. To RRIRNRPPRLPRPRPRPIGCPRP belongs 0.0526; to RRIRWRPPRLPRPRPRPIFAPRP, 0.329; to RRIRCRPPRLPRPRPRPSSRPRP, -0.459. Take RRIRERPPRLPRPRPRPFTWPRP: the “shrunken log2 fold change” value is -0.737. To RRIRDRPPRLPRPRPRPEPIPRP belongs -0.0153; to RRIRERPPRLPRPRPRPWQAPRP, 0.00281; to RRIRWRPPRLPRPRPRPAEFPRP, 0.292. The same measure for RRIRQRPPRLPRPRPRPAPKPRP: 0.148.

As for RRIRTRPPRLPRPRPRPNQPPRP, the “shrunken log2 fold change” value was 0.0619. The same measure for RRIRWRPPRLPRPRPRPQWAPRP: 0.829.

As to RRIRHRPPRLPRPRPRPAHNPRP, the “shrunken log2 fold change” value is -0.366. Regarding RRIRVRPPRLPRPRPRPEFRPRP, the “shrunken log2 fold change” value amounted to 0.463. To RRIRMRPPRLPRPRPRPHDQPRP belongs 0.351; to RRIRYRPPRLPRPRPRPMLRPRP, -0.256. To RRIRLRPPRLPRPRPRPMQHPRP belongs 0.256; to RRIRARPPRLPRPRPRPTVVPRP, 0.238. The same measure for RRIRARPPRLPRPRPRPEQPPRP: 0.343; for RRIRQRPPRLPRPRPRPIFAPRP: 0.146.

For RRIRTRPPRLPRPRPRPFMLPRP, the “shrunken log2 fold change” value was -0.706. To RRIRYRPPRLPRPRPRPITDPRP belongs -0.162. To RRIRKRPPRLPRPRPRPVHTPRP belongs 0.00666; to RRIRWRPPRLPRPRPRPEFEPRP, 0.0113; to RRIRERPPRLPRPRPRPRCIPRP, -0.425. The same measure for RRIRRRPPRLPRPRPRPNPPPRP: 0.451; for RRIRVRPPRLPRPRPRPFWLPRP: 0.234. Turning to RRIRYRPPRLPRPRPRPSWAPRP, the “shrunken log2 fold change” value is -0.21. The same measure for RRIRVRPPRLPRPRPRPPVIPRP: -0.101. To RRIRLRPPRLPRPRPRPHMHPRP belongs -0.578.

(Values after the supplement of paper PMC9112550, “Optimization of the antimicrobial peptide Bac7 by deep mutational scanning” (BMC Biology, 2022).)
